Assays:
Details in all cases: both partners purified
[1] = target: T1, HER2-ECD-His protein (Homo sapiens, UniProt P04626); test: SPR; affinity: antibody captured at about 50 RU by goat anti-human IgG (γ) on CM5; HER2-ECD-His injected at 0 to 640 nM; fit to 1:1 (Langmuir) model
T1 construct: human epidermal growth factor receptor 2 (HER2), extracellular region (ECD); The SPR methods name HER2-ECD-His; The ELISA legends say only 'HER2-ECD protein'; also called HER2-ECD protein; extracellular region (ECD) of HER2; source: Freestyle 293 system, secreted, purified (Ni-NTA)

[2] = target: T1, HER2-ECD-His protein; test: SPR; k off analysis of Fab: HER2-ECD-His immobilised on CM5 by amine coupling at about 2,000 RU; Fab injected at 2 μg/mL, 50 μL/minute
[3] = target: T1, HER2-ECD-His protein; test: SPR; k off analysis of IgG: antibody captured at 1 μg/mL by goat anti-human IgG (γ) immobilised on CM5; HER2-ECD-His injected at 160 nM
[4] = target: T1, HER2-ECD-His protein; test: SPR; affinity: antibody captured at about 50 RU by goat anti-human IgG (γ) on CM5; HER2-ECD-His injected at 0 to 640 nM; fit to 1:1 (Langmuir) model; remark: listed apart in the source

B1: chimeric 1E11 (antibody, V domains shown)
VH: EVKLVESGGGLVQPGGSLKLSCAASGFTFSSYTMSWVRQTPEKRLEWVAYISNGGGSTYYPDTVKGRFTISRDNAKNTLYLQMSSLKSEDTAMYYCARHLGGTASFDYWGQGTTVTVSS
VL: DIQMTQSPASQSASLGESVTITCLASQTIGTWLAWYQQKPGKSPQLLIYVATSLADGVPSRFSGSGSGTKFSFKISSLQAEDFVSYYCQQLYSTPWTFGGGTKLELK
notes: VH of murine 1E11; VL of murine 1E11; Chimeric IgG; also called ch1E11; parental ch1E11; source: Freestyle 293 system, purified (protein-A)
Kd [1]: 23 nM

B2: hz1E11 Fab, T99HA mutant (Fab, V domains shown)
VH: EVQLVESGGGLVQPGGSLRLSCAASGFTFSSYTMSWVRQAPGKGLEWVAYISNGGGSTYYPDTVKGRFTISRDNAKNSLYLQMNSLRAEDTAVYYCARHLGGAASFDYWGQGTLVTVSS
VL: DIQMTQSPSSLSASVGDRVTITCLASQTIGTWLAWYQQKPGKAPKLLIYVATSLADGVPSRFSGSGSGTDFTLTISSLQPEDFATYYCQQLYSTPWTFGQGTKVEIK
notes: as the VH of m4 (hz1E11); numbers count on: Kabat; as the VL of m4 (hz1E11); Fab in the vector pComb3X; source: E. coli DH5α, periplasmic extract, purified (IMAC)
fold increase of k off (against the parental Fab) [2]: 32 fold

B3: L-1F11 + H-2A7 (IgG) (antibody, V domains shown)
VH: EVQLVESGGGLVQPGGSLRLSCAASGFTFSSYTMSWVRQAPGKGLEWVAYISNGGGSTYYPDTVKGRFTISRDNAKNSLYLQMNSLRAEDTAVYYCARNFGGTASFDYWGQGTLVTVSS
VL: DIQMTQSPSSLSASVGDRVTITCLASQTIGTWLAWYQQKPGKAPKLLIYVATSLADGVPSRFSGSGSGTDFTLTISSLQPEDFATYYCQQTAFSPWTFGQGTKVEIK
notes: as the VH of m4 (hz1E11); numbers count on: Kabat; as the VL of m4 (hz1E11); IgG; source: Freestyle 293 system, purified (protein-A)
koff [3]: 4.5e-05 s⁻¹

B4: L-1A12 + H-2A7 (IgG) (antibody, V domains shown)
VH: EVQLVESGGGLVQPGGSLRLSCAASGFTFSSYTMSWVRQAPGKGLEWVAYISNGGGSTYYPDTVKGRFTISRDNAKNSLYLQMNSLRAEDTAVYYCARNFGGTASFDYWGQGTLVTVSS
VL: DIQMTQSPSSLSASVGDRVTITCLASQTIGTWLAWYQQKPGKAPKLLIYVATSLADGVPSRFSGSGSGTDFTLTISSLQPEDFATYYCQQNAYAPWTFGQGTKVEIK
notes: as for B3
koff [3]: 2.59e-05 s⁻¹

B5: hz1E11 Fab, G97HA mutant (Fab, V domains shown)
VH: EVQLVESGGGLVQPGGSLRLSCAASGFTFSSYTMSWVRQAPGKGLEWVAYISNGGGSTYYPDTVKGRFTISRDNAKNSLYLQMNSLRAEDTAVYYCARHLAGTASFDYWGQGTLVTVSS
VL: DIQMTQSPSSLSASVGDRVTITCLASQTIGTWLAWYQQKPGKAPKLLIYVATSLADGVPSRFSGSGSGTDFTLTISSLQPEDFATYYCQQLYSTPWTFGQGTKVEIK
notes: as the VH of m4 (hz1E11); numbers count on: Kabat; as the VL of m4 (hz1E11); Fab in the vector pComb3X; also called G97A; source: E. coli DH5α, periplasmic extract, purified (IMAC)
fold increase of k off (against the parental Fab) [2]: 17 fold

B6: L-1A12 + H-1B12 (IgG) (antibody, V domains shown)
VH: EVQLVESGGGLVQPGGSLRLSCAASGFTFSSYTMSWVRQAPGKGLEWVAYISNGGGSTYYPDTVKGRFTISRDNAKNSLYLQMNSLRAEDTAVYYCARNYGGTASFDYWGQGTLVTVSS
VL: DIQMTQSPSSLSASVGDRVTITCLASQTIGTWLAWYQQKPGKAPKLLIYVATSLADGVPSRFSGSGSGTDFTLTISSLQPEDFATYYCQQNAYAPWTFGQGTKVEIK
notes: as the VH of m4 (hz1E11); numbers count on: Kabat; as the VL of m4 (hz1E11); IgG; also called combination of the VH of 1B12 and VL of 1A12; source: Freestyle 293 system, purified (protein-A)
koff [3]: 1.87e-05 s⁻¹

B7: clone 1A12 (IgG) (antibody, V domains shown)
VH: EVQLVESGGGLVQPGGSLRLSCAASGFTFSSYTMSWVRQAPGKGLEWVAYISNGGGSTYYPDTVKGRFTISRDNAKNSLYLQMNSLRAEDTAVYYCARHLGGTASFDYWGQGTLVTVSS
VL: DIQMTQSPSSLSASVGDRVTITCLASQTIGTWLAWYQQKPGKAPKLLIYVATSLADGVPSRFSGSGSGTDFTLTISSLQPEDFATYYCQQNAYAPWTFGQGTKVEIK
notes: as the VH of m4 (hz1E11); CDR-H3 HLGGTASFDY; as the VL of m4 (hz1E11); numbers count on: Kabat; IgG; also called L-1A12; source: Freestyle 293 system, purified (protein-A)
koff [3]: 2.8e-05 s⁻¹ | Kd [4]: 1.9 nM | koff [4]: 0.00012 s⁻¹ | kon [4]: 64000 M⁻¹ s⁻¹

B8: clone 1F11 (IgG) (antibody, V domains shown)
VH: EVQLVESGGGLVQPGGSLRLSCAASGFTFSSYTMSWVRQAPGKGLEWVAYISNGGGSTYYPDTVKGRFTISRDNAKNSLYLQMNSLRAEDTAVYYCARHLGGTASFDYWGQGTLVTVSS
VL: DIQMTQSPSSLSASVGDRVTITCLASQTIGTWLAWYQQKPGKAPKLLIYVATSLADGVPSRFSGSGSGTDFTLTISSLQPEDFATYYCQQTAFSPWTFGQGTKVEIK
notes: as the VH of m4 (hz1E11); CDR-H3 HLGGTASFDY; as the VL of m4 (hz1E11); numbers count on: Kabat; IgG; also called L-1F11; source: Freestyle 293 system, purified (protein-A)
koff [3]: 5.89e-05 s⁻¹ | Kd [4]: 1.4 nM | koff [4]: 0.00012 s⁻¹ | kon [4]: 90000 M⁻¹ s⁻¹

B9: L-1F11 + H-1B12 (IgG) (antibody, V domains shown)
VH: EVQLVESGGGLVQPGGSLRLSCAASGFTFSSYTMSWVRQAPGKGLEWVAYISNGGGSTYYPDTVKGRFTISRDNAKNSLYLQMNSLRAEDTAVYYCARNYGGTASFDYWGQGTLVTVSS
VL: DIQMTQSPSSLSASVGDRVTITCLASQTIGTWLAWYQQKPGKAPKLLIYVATSLADGVPSRFSGSGSGTDFTLTISSLQPEDFATYYCQQTAFSPWTFGQGTKVEIK
notes: as for B3
koff [3]: 3.45e-05 s⁻¹
